pKi: −log10 of the molar value.

The target of the assay is trypsin from bovine pancreas (Sigma, St. Louis) (bovine) (UniProt P00760). Put plainly: inhibition kinetics of trypsin (0.005 µM) digesting EGFP-T/C1 at 0-100 nM leupeptin, absorbance at 490 nm, fitted with Enzfitter.
Chain of trypsin from bovine pancreas (Sigma, St. Louis) (bovine) (P00760 24-246): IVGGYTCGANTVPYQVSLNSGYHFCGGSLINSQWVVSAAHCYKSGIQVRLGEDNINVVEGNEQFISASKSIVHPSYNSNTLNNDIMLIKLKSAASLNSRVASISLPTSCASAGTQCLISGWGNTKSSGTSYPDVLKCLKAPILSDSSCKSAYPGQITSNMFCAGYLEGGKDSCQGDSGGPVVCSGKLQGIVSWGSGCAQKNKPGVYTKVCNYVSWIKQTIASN

leupeptin (Sigma, St. Louis) (peptide) showed a pKi of 7.51.

By pKi is commonly meant −log10 of the Ki, conventionally taken in molar units. Lower therefore signals a high Ki.
